# Experimental data published in patent US20030186325A1 (GlaxoSmithKline, published 2003).
# Assays:
# α4β1 integrin [1] = target: T1, α4β1 integrin (UniProt P13612 34-1032; P05556 21-798); test: adhesion of J6 and HL60 cells to coated GST fusion with function blocking antibodies
# T1 construct: whole, on cells; Endogenous integrin on the J6 and HL60 cell lines; adhesion run with 0.2 mM MnCl2 (and TPA for HL60); also called α4 integrin on J6 and HL60 cells
# Experimental: Cells were incubated for 35 minutes at 37° C. in the presence of or absence of various function blocking anti-integrin antibodies at 10 μg/ml. To prebind the antibodies cells were preincubated on ice for 10 minutes before being moved to 37° C. Each data point represents the mean±SD of duplicate points. […] To stimulate α4β1 binding to OPN, 50 ng/ml TPA was also included. Cells were incubated for 35 minutes at 37° C. in the presence or absence of various function blocking anti-integrin antibodies at 10 μg/ml. To prebind the antibodies cells were preincubated on ice for 10 minutes before being moved to 37° C. Each data point represents the mean±SD of duplicate points.
# α4β1 integrin [2] = target: T1, α4β1 integrin; test: J6 cell adhesion to coated GST fusion, with and without BIO1211
# α5β1 integrin [3] = target: T2, α5β1 integrin (UniProt P08648 42-1049; P05556 21-798); test: J6 cell adhesion to coated GST fusion in the presence of BIO1211
# T2 construct: whole, on cells; Endogenous integrin on J6 cells
# α5β1 integrin [4] = target: T2, α5β1 integrin; test: J6 cell adhesion to coated GST fusion that is left in the presence of BIO1211
# T1 sequence (P13612 34-1032, chain 1 of 2): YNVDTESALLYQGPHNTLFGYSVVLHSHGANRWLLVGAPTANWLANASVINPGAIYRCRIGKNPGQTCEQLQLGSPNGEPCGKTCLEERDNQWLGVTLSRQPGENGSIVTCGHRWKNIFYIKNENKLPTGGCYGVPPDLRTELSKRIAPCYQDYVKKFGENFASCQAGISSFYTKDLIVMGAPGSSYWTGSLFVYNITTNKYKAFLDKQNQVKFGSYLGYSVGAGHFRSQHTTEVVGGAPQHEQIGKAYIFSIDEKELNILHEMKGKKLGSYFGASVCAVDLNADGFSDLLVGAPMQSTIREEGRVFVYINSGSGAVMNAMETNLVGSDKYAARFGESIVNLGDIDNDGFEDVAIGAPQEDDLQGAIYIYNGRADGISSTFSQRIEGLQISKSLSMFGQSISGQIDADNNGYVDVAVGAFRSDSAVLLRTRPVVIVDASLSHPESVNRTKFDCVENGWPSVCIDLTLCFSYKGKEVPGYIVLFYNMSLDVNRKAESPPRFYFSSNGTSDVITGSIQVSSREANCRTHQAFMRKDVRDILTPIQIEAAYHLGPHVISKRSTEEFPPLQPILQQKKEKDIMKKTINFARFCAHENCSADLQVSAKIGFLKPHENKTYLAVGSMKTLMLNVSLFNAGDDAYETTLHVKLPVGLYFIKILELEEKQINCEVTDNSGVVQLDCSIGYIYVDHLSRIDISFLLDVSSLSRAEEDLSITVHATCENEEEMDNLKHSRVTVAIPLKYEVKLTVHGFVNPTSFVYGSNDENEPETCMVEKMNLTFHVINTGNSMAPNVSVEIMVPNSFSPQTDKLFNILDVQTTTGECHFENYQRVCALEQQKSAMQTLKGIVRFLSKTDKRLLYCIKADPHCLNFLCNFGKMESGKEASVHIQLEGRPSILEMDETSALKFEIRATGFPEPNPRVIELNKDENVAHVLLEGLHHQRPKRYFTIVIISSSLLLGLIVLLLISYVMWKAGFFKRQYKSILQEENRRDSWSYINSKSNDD
# T1 sequence (P05556 21-798, chain 2 of 2): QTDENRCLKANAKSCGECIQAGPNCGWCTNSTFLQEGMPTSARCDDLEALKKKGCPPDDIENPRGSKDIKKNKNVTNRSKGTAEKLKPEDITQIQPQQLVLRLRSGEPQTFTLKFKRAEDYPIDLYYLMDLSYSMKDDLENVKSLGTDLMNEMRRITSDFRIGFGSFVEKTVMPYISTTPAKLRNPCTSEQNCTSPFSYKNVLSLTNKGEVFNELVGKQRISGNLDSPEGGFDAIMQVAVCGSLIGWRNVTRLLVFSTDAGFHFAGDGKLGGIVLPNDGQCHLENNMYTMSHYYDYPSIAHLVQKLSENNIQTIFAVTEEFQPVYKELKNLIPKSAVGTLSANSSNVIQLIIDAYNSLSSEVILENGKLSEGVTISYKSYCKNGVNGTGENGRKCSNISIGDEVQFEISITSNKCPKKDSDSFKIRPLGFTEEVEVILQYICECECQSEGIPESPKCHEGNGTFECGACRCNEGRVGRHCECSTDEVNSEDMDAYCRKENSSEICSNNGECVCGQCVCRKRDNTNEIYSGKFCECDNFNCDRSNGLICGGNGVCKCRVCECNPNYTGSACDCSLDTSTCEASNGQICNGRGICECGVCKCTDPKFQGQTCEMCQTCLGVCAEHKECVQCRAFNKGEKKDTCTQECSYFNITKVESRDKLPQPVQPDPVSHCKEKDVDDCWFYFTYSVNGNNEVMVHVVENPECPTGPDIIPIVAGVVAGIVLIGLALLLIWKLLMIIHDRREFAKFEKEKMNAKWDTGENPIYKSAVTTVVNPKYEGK
# T2 sequence (P08648 42-1049, chain 1 of 2): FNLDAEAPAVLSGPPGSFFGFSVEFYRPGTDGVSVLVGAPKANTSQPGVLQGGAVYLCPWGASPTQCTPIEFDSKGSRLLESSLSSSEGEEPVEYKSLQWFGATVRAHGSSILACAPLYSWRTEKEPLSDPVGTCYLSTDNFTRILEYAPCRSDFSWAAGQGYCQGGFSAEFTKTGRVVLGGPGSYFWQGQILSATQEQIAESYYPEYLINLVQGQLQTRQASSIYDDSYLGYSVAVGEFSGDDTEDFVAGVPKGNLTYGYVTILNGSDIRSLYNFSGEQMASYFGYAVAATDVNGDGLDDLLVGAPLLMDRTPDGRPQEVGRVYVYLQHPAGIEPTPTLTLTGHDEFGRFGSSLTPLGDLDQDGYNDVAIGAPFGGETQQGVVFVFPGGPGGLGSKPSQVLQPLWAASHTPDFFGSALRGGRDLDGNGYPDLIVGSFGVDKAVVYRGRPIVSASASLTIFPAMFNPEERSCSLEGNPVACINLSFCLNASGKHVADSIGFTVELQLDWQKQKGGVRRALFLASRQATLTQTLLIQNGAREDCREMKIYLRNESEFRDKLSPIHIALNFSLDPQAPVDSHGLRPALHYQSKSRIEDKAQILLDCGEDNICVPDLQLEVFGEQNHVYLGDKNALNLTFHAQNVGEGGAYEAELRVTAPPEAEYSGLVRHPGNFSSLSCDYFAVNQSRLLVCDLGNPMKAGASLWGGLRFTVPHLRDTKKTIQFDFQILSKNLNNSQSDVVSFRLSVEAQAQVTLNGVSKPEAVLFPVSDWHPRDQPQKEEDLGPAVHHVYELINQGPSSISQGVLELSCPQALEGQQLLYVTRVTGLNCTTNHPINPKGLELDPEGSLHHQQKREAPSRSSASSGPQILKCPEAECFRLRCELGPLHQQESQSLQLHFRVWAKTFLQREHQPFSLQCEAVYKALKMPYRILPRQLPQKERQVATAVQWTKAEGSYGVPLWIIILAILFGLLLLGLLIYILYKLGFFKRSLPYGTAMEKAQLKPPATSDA
# T2 sequence (P05556 21-798, chain 2 of 2): as the sequence (P05556 21-798, chain 2 of 2) above
Binder,binding result (α4β1 integrin [1]),binding result (α4β1 integrin [2]),binding result (α5β1 integrin [3]),binding result (α5β1 integrin [4])
"GST fusion protein representing intact osteopontin (aa17-314) (ligand, Expressed in E. coli UT5600; coated on plates; also called intact OPN; full length OPN; not shown: GST carrier and the linker of the modified pGEX-2T vector) not shown",binds,–,–,–
"GST fusion protein of OPN aa125-168 (ligand, not shown: GST carrier and the linker of the modified pGEX-2T vector) not shown",–,binds,binds,–
"GST fusion protein of thrombin cleaved OPN (aa17-168) (ligand, Stop codon after aa168, so that Arg168 is the free C-terminus; also called thrombin cleaved fragment; not shown: GST carrier and the linker of the modified pGEX-2T vector) not shown",–,binds,–,binds
